Assay results as given in US20200223889A1 (Novo Nordisk, published 2020).
Positions of bridges follow the written chain, without caps; N, C: chain ends. Non-standard residues stand in square brackets, D forms with d. Aib = CC(C)(N)C(=O)O

B1: Chem. 57 (peptide)
peptide: cyclo(CAH[dF]QWCAK[dK]KW)
modifications: disulfide 1-7
SMILES: C[C@@H]1NC(=O)[C@@H]2CSSC[C@H](NC(=O)[C@H](Cc3c[nH]c4ccccc34)NC(=O)[C@H](CCC(N)=O)NC(=O)[C@@H](Cc3ccccc3)NC(=O)[C@H](Cc3c[nH]cn3)NC1=O)C(=O)N[C@@H](C)C(=O)N[C@@H](CCCCN)C(=O)N[C@H](CCCCN)C(=O)N[C@@H](CCCCN)C(=O)N[C@@H](Cc1c[nH]c3ccccc13)C(=O)N2
notes: also called c[c[Cys-Ala-His-D-Phe-Gln-Trp-Cys]-Ala-Lys-D-Lys-Lys-Trp]
B2: Chem. 77 (peptide)
peptide: cyclo(CKH[dF]HWCKKKKW)
modifications: disulfide 1-7
SMILES: NCCCC[C@@H]1NC(=O)[C@H](CCCCN)NC(=O)[C@H](CCCCN)NC(=O)[C@@H]2CSSC[C@H](NC(=O)[C@H](Cc3c[nH]c4ccccc34)NC(=O)[C@H](CCCCN)NC1=O)C(=O)N[C@@H](CCCCN)C(=O)N[C@@H](Cc1c[nH]cn1)C(=O)N[C@H](Cc1ccccc1)C(=O)N[C@@H](Cc1c[nH]cn1)C(=O)N[C@@H](Cc1c[nH]c3ccccc13)C(=O)N2
notes: also called c[c[Cys-Lys-His-D-Phe-His-Trp-Cys]-Lys-Lys-Lys-Lys-Trp]
B3: Chem. 76 (peptide)
peptide: cyclo(CKH[dF]HWCAKKKW)
modifications: disulfide 1-7
SMILES: C[C@@H]1NC(=O)[C@@H]2CSSC[C@H](NC(=O)[C@H](Cc3c[nH]c4ccccc34)NC(=O)[C@H](CCCCN)NC(=O)[C@H](CCCCN)NC(=O)[C@H](CCCCN)NC1=O)C(=O)N[C@@H](CCCCN)C(=O)N[C@@H](Cc1c[nH]cn1)C(=O)N[C@H](Cc1ccccc1)C(=O)N[C@@H](Cc1c[nH]cn1)C(=O)N[C@@H](Cc1c[nH]c3ccccc13)C(=O)N2
notes: also called c[c[Cys-Lys-His-D-Phe-His-Trp-Cys]-Ala-Lys-Lys-Lys-Trp]
B4: Chem. 95 (peptide)
peptide: cyclo(CPH[dF]HWCAKKHR)
modifications: disulfide 1-7
SMILES: C[C@@H]1NC(=O)[C@@H]2CSSC[C@H](NC(=O)[C@H](CCCNC(=N)N)NC(=O)[C@H](Cc3c[nH]cn3)NC(=O)[C@H](CCCCN)NC(=O)[C@H](CCCCN)NC1=O)C(=O)N1CCC[C@H]1C(=O)N[C@@H](Cc1c[nH]cn1)C(=O)N[C@H](Cc1ccccc1)C(=O)N[C@@H](Cc1c[nH]cn1)C(=O)N[C@@H](Cc1c[nH]c3ccccc13)C(=O)N2
notes: also called c[c[Cys-Pro-His-D-Phe-His-Trp-Cys]-Ala-Lys-Lys-His-Arg]
B5: Chem. 71 (peptide)
peptide: cyclo(CPH[dF]HWCAKKKR)
modifications: disulfide 1-7
SMILES: C[C@@H]1NC(=O)[C@@H]2CSSC[C@H](NC(=O)[C@H](CCCNC(=N)N)NC(=O)[C@H](CCCCN)NC(=O)[C@H](CCCCN)NC(=O)[C@H](CCCCN)NC1=O)C(=O)N1CCC[C@H]1C(=O)N[C@@H](Cc1c[nH]cn1)C(=O)N[C@H](Cc1ccccc1)C(=O)N[C@@H](Cc1c[nH]cn1)C(=O)N[C@@H](Cc1c[nH]c3ccccc13)C(=O)N2
notes: also called c[c[Cys-Pro-His-D-Phe-His-Trp-Cys]-Ala-Lys-Lys-Lys-Arg]
B6: Chem. 96 (peptide)
peptide: cyclo(CPH[dF]HWCAHKKR)
modifications: disulfide 1-7
SMILES: C[C@@H]1NC(=O)[C@@H]2CSSC[C@H](NC(=O)[C@H](CCCNC(=N)N)NC(=O)[C@H](CCCCN)NC(=O)[C@H](CCCCN)NC(=O)[C@H](Cc3c[nH]cn3)NC1=O)C(=O)N1CCC[C@H]1C(=O)N[C@@H](Cc1c[nH]cn1)C(=O)N[C@H](Cc1ccccc1)C(=O)N[C@@H](Cc1c[nH]cn1)C(=O)N[C@@H](Cc1c[nH]c3ccccc13)C(=O)N2
notes: also called c[c[Cys-Pro-His-D-Phe-His-Trp-Cys]-Ala-His-Lys-Lys-Arg]
B7: Chem. 78 (peptide)
peptide: cyclo(CKH[dF]HWCAKKKR)
modifications: disulfide 1-7
SMILES: C[C@@H]1NC(=O)[C@@H]2CSSC[C@H](NC(=O)[C@H](CCCNC(=N)N)NC(=O)[C@H](CCCCN)NC(=O)[C@H](CCCCN)NC(=O)[C@H](CCCCN)NC1=O)C(=O)N[C@@H](CCCCN)C(=O)N[C@@H](Cc1c[nH]cn1)C(=O)N[C@H](Cc1ccccc1)C(=O)N[C@@H](Cc1c[nH]cn1)C(=O)N[C@@H](Cc1c[nH]c3ccccc13)C(=O)N2
notes: also called c[c[Cys-Lys-His-D-Phe-His-Trp-Cys]-Ala-Lys-Lys-Lys-Arg]
B8: Chem. 84 (peptide)
peptide: cyclo(C[dK]H[dF]HWCAKKKW)
modifications: disulfide 1-7
SMILES: C[C@@H]1NC(=O)[C@@H]2CSSC[C@H](NC(=O)[C@H](Cc3c[nH]c4ccccc34)NC(=O)[C@H](CCCCN)NC(=O)[C@H](CCCCN)NC(=O)[C@H](CCCCN)NC1=O)C(=O)N[C@H](CCCCN)C(=O)N[C@@H](Cc1c[nH]cn1)C(=O)N[C@H](Cc1ccccc1)C(=O)N[C@@H](Cc1c[nH]cn1)C(=O)N[C@@H](Cc1c[nH]c3ccccc13)C(=O)N2
notes: also called c[c[Cys-D-Lys-His-D-Phe-His-Trp-Cys]-Ala-Lys-Lys-Lys-Trp]
B9: Chem. 75 (peptide)
peptide: cyclo(CPH[dF]HWCKKKKW)
modifications: disulfide 1-7
notes: also called c[c[Cys-Pro-His-D-Phe-His-Trp-Cys]-Lys-Lys-Lys-Lys-Trp]
B10: Chem. 60 (peptide)
peptide: cyclo(CAH[dF]HWCAKKKW)
modifications: disulfide 1-7
SMILES: C[C@@H]1NC(=O)[C@@H]2CSSC[C@H](NC(=O)[C@H](Cc3c[nH]c4ccccc34)NC(=O)[C@H](Cc3c[nH]cn3)NC(=O)[C@@H](Cc3ccccc3)NC(=O)[C@H](Cc3c[nH]cn3)NC1=O)C(=O)N[C@@H](C)C(=O)N[C@@H](CCCCN)C(=O)N[C@@H](CCCCN)C(=O)N[C@@H](CCCCN)C(=O)N[C@@H](Cc1c[nH]c3ccccc13)C(=O)N2
notes: also called c[c[Cys-Ala-His-D-Phe-His-Trp-Cys]-Ala-Lys-Lys-Lys-Trp]
B11: Chem. 61 (peptide)
peptide: cyclo(C[Aib]H[dF]HWCAKKKW)
modifications: disulfide 1-7
SMILES: C[C@@H]1NC(=O)[C@@H]2CSSC[C@H](NC(=O)[C@H](Cc3c[nH]c4ccccc34)NC(=O)[C@H](CCCCN)NC(=O)[C@H](CCCCN)NC(=O)[C@H](CCCCN)NC1=O)C(=O)NC(C)(C)C(=O)N[C@@H](Cc1c[nH]cn1)C(=O)N[C@H](Cc1ccccc1)C(=O)N[C@@H](Cc1c[nH]cn1)C(=O)N[C@@H](Cc1c[nH]c3ccccc13)C(=O)N2
notes: also called c[c[Cys-Aib-His-D-Phe-His-Trp-Cys]-Ala-Lys-Lys-Lys-Trp]
B12: Chem. 58 (peptide)
peptide: cyclo(CAH[dF]K(Ac)WCAK[dK]KW)
modifications: disulfide 1-7
SMILES: CC(=O)NCCCC[C@@H]1NC(=O)[C@@H](Cc2ccccc2)NC(=O)[C@H](Cc2c[nH]cn2)NC(=O)[C@H](C)NC(=O)[C@@H]2CSSC[C@H](NC(=O)[C@H](Cc3c[nH]c4ccccc34)NC1=O)C(=O)N[C@@H](C)C(=O)N[C@@H](CCCCN)C(=O)N[C@H](CCCCN)C(=O)N[C@@H](CCCCN)C(=O)N[C@@H](Cc1c[nH]c3ccccc13)C(=O)N2
notes: also called c[c[Cys-Ala-His-D-Phe-AcLys-Trp-Cys]-Ala-Lys-D-Lys-Lys-Trp]

Key:
[1] = molecular target: T1, human melanocortin 4 receptor (human, UniProt P32245 1-332); test: competition with 125-NDP-α-MSH, BHK human MC4R membranes
T1 construct: whole, on cells; cAMP assay on whole BHK cells; also called MC4R; human MC4 receptor
T1 sequence (P32245 whole entry): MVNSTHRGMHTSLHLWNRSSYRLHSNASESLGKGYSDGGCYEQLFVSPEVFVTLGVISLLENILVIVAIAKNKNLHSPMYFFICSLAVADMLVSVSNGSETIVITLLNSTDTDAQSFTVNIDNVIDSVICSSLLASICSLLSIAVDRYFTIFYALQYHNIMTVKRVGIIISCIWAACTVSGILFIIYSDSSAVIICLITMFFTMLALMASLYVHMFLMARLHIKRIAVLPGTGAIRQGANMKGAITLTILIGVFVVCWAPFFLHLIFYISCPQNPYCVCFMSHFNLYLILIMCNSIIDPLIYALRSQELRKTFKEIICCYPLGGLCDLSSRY
Procedure: In order to assess the binding affinity of the selected compounds for the human MC4R competitive binding assays was performed with radiolabeled NDP-alpha MSH (¹²⁵NDP-α-MSH).
The assay was performed in 96-well filterplates (Unifilter) using BHK cells stably expressing the human MC4 receptor.
The BHK cell membranes were prepared from frozen or fresh cells that were homogenized in 20 mM HEPES pH 7.1, 5 mM MgCl₂, 1 mg/ml bacitracin (buffer 1) and centrifuged at 15000 rpm at 4° C., 10 min in a Sorvall RC 5B plus, SS-34 rotor. The supernatant was discarded, and the pellets were re-suspended in buffer 1, homogenized and centrifuged two more times. The final pellets were re-suspended in buffer 1 and the protein concentration was measured and adjusted with buffer 1 to 5 mg/ml and the membrane preparation was kept at −80° C. until assay. The assay was run on a dilution of this cell membrane suspension without any further preparation. The suspension was diluted to give maximally 10% specific binding, i.e. to approx. 50-100 fold dilution, optimized after each membrane preparation. The assay was performed in a total volume of 200 μl: 50 μl of cell suspension, 50 μl of ¹²⁵NDP-α-MSH (apx. […] in final concentration), 50 μl of test compound and 50 μl binding buffer were mixed and incubated for 2 h at 25° C. (binding buffer: 25 mM HEPES, pH 7.0, 1 mM CaCl₂), 1 mM MgSO₄, 1 mM EGTA, 0.005% Tween™ 20 and 0.1% HSA or, alternatively, 0.1% ovalbumin (Sigma; catalogue No. A-5503)). Test compounds were dissolved in 100% DMSO and diluted in binding buffer in a dose range from 1 μM to 0.001 nM. Radiolabelled ligand and membranes were diluted in binding buffer. The incubation was stopped by dilution with 8×100 μl ice-cold 0.9% NaCl. The radioactivity retained on the filters was counted using a Packard Topcounter. The data were analysed by non-linear regression analysis of binding curves, using the Windows™ program GraphPad™ Prism (GraphPad Software, USA).

[2] = molecular target: human melanocortin 1 receptor (human, UniProt Q01726 1-317); test: cell-based or functional assay
human melanocortin 1 receptor, sequence (Q01726 whole entry): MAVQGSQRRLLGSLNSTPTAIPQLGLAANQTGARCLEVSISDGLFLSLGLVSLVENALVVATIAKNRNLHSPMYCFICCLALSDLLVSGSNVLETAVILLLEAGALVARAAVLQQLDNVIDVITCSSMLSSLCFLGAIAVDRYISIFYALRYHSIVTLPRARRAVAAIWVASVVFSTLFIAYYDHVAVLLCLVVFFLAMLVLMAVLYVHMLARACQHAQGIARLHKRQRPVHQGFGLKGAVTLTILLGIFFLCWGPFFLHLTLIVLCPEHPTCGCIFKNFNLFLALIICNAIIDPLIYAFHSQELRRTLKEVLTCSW

[3] = molecular target: T1, human melanocortin 4 receptor; test: cell-based or functional assay

| Binder | Ki [1] | MC1R cAMP EC50 [2] | MC4R cAMP EC50 [3] |
| --- | --- | --- | --- |
| B1 | 0.21 nM | 10.4 nM | 0.19 nM |
| B2 | 0.72 nM | 49.8 nM | 0.46 nM |
| B3 | 0.09 nM | 21.8 nM | 0.16 nM |
| B4 | 0.07 nM | 87.7 nM | 0.22 nM |
| B5 | 0.05 nM | 33.2 nM | 0.08 nM |
| B6 | 0.04 nM | 57.7 nM | 0.04 nM |
| B7 | 0.02 nM | 3.8 nM | 0.04 nM |
| B8 | 0.19 nM | 43.4 nM | 0.59 nM |
| B9 | 0.11 nM | 68 nM | 0.44 nM |
| B10 | 0.1 nM | 53.3 nM | 0.17 nM |
| B11 | 0.22 nM | > 1 nM | 0.31 nM |
| B12 | 0.09 nM | 3.93 nM | 0.11 nM |
